{
  "source": "paper PMC6992781",
  "about": "(Nature Communications, 2020)",
  "target": "full-length RABV G (isolate 8743THA) (Rabies lyssavirus, isolate 8743THA, UniProt B2XY12, strain)",
  "assay": "flow cytometry on cells",
  "conditions": "one partner purified",
  "data": [
    {"binder": "RVC20 (human broadly neutralizing monoclonal antibody, recombinant IgG1/kappa) (antibody, V domains shown) VH: QVQLQESGPGLVKPSQTLSLTCTVSGGSFSSGSYSWNWIRQHPGKGLEWIGYIYYSGSTYYNPSLKSRVTMSVHTSKNQFSLKLNSITAADTAVYYCARGTYSDFWSGSPLDYWGQGTLVTVSS VL: DIQMTQSPSSLSASVGDRVTITCRASQGISNYLAWFQQKPGKAPKSLIYAASSLQSGVPSRFSGSGSGTDFTLTINSLQPEDFVTYFCQQYDTYPLTFGGGTKVEIK", "values": [
      {"measurement": "binding result", "result": "binds"}
    ]}
  ]
}
